Here are results for one variant from article PMC9394474.

B1: unnamed (parent)
chain 1: TIEALFQ
chain 2: not shown

Variants of B1 are the subject of this experiment. Nature of the experiment: ITC. Conditions: with partner chain of the complex shown.
chain 1 T1A: the Kd (commonly the equilibrium constant for the complex coming apart) is 17 µM.
